Results on one molecule are retold here after publication PMC9369135, “An FGFR1-Binding Peptide Modified Liposome for siRNA Delivery in Lung Cancer” (International Journal of Molecular Sciences, 2022).

Where no end group is shown, it is not given here.

What all share (assay): MST; protein in a series of gradient dilutions, an equal amount of labeled CP7 peptide added; PBS with 0.05% Tween-20; glass capillary; room temperature; Monolith NT.115
Common to all, as to conditions: both partners purified

In experiment [1] the target is T1, Human VEGFR1/FLT-1 protein (Fc tag) (human, UniProt P17948 27-758).
T1 construct: human VEGFR1/FLT-1, recombinant protein with Fc tag, Sino Biological 10136-H02H; Check the vendor's data sheet; source: bought: Sino Biological
T1 sequence (P17948 27-758): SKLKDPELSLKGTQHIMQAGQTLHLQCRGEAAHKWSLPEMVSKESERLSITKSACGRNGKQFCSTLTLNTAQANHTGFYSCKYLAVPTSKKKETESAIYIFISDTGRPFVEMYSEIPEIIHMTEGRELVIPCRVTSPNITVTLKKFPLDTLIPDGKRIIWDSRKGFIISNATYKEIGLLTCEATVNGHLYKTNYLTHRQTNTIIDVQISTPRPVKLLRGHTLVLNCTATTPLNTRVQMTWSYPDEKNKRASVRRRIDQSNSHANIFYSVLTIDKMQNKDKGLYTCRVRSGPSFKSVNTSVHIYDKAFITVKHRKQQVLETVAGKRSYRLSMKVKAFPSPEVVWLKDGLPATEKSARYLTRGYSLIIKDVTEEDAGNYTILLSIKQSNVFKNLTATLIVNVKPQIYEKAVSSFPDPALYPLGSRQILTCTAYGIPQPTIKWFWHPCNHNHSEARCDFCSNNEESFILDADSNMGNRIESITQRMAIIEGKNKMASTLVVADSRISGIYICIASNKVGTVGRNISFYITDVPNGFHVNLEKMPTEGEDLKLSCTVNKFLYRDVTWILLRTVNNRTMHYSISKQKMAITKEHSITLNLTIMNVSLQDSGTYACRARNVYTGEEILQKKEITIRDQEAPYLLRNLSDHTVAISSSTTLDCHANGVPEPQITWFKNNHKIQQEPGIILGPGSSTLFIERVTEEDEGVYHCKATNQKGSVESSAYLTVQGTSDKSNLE

Experiment [2] has as its target T2, Human EGFR/HER1/ErbB1 protein (His tag) (human, UniProt P00533 25-645).
T2 construct: human EGFR/HER1/ErbB1, recombinant protein with His tag, Sino Biological 10001-H08H; Check the vendor's data sheet; source: bought: Sino Biological

The target of experiment [3] is T3, Human FGFR1/CD331 protein (His tag) (human, UniProt P11362 22-376).
T3 construct: human FGFR1/CD331, recombinant protein with His tag, Sino Biological 10616-H08H; Check the vendor's data sheet; source: bought: Sino Biological
T3 sequence (looked up): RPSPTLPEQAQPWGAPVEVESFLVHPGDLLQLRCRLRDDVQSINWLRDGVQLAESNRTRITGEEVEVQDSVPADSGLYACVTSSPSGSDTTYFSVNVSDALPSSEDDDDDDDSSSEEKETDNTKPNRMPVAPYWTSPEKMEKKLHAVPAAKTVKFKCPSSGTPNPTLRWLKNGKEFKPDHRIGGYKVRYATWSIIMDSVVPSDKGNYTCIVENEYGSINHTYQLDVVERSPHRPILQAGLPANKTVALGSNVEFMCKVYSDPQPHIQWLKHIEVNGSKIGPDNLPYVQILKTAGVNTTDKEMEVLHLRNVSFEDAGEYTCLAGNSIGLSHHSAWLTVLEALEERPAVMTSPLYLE

B1: CP7 peptide (CIQPFYP) (peptide)
peptide: CIQPFYP
modifications: also: labelled, label not named
notes: novel peptide designed and screened by the authors' group; The methods of the MST say only 'the labeled peptide'; source: synthetic peptide: Shanghai GL Biochem Peptide Ltd
In the case of B1, the results for the Kd in experiment [1], in experiment [2] and in experiment [3] were 66.1 nM, 389 nM and 22.5 nM, respectively.
